A short description of data set [1]: Solubility of the AIDA1 PTB domain and mutants. The source says:
Since the objective of the aromatic-alanine substitutions was to improve solubility for a structure determination, ^15N-HSQC spectra were used qualitatively.

Data set [2] in a line: Thermal denaturation midpoint (Tm) by CD spectroscopy. As to conditions: far UV CD, ellipticity at 222 nm, 50 µM protein, heating 20–90°C at 2°C/min. In kind it is physicochemical. On the procedure: Far UV circular dichroism (CD) spectra were acquired with a Jasco J-810 instrument at a protein concentration of 50 µM using a rectangular cell with a 0.1 cm path length. Spectra were recorded from 260–200 nm with a scan rate of 50 nm/min and a 1.0 nm bandwidth. A midpoint denaturation temperature (Tm) was determined by heating samples from 20–90°C at 2°C/min and monitoring ellipticity at 222 nm.

The term Solubility denotes the concentration that dissolves in the medium under given conditions. As usually defined, the Tm is the temperature at the midpoint of the melting transition.

B1: wild type: PTB domain (aa. 1043–1195) of human AIDA1b, amino terminal 6xHis tag and intervening thrombin site (protein, UniProt Q7Z6G8 1043-1195, looked up, fragment)
chain: TPVQYWQHHPEKLIFQSCDYKAFYLGSMLIKELRGTESTQDACAKMRANCQKSTEQMKKVPTIILSVSYKGVKFIDATNKNIIAEHEIRNISCAAQDPEDLSTFAYITKDLKSNHHYCHVFTAFDVNLAYEIILTLGQAFEVAYQLALQARKG
modifications: PTB domain His tag, thrombin site
notes: PTB domain (aa. 1043–1195) of human AIDA1b, amino terminal 6xHis tag and intervening thrombin site
Take B1: in data set [1], the “solubility (in words)” value was “poor solubility” and the “soluble concentration, at least one day at room temperature” value turned out to be 0.15 mM. Moreover, the Solubility in data set [1] (concentrated until increased resonance line broadening or apparent turbidity, 15N-HSQC NMR read-out, 20 mM Na-phosphate, pH 7.8, […] NaCl, 0.05% (w/v) NaN3) worked out at 100 µM. Also, in data set [2], the midpoint of thermal melting (Tm) is 62 °C.
